Patent publication US20040247614A1 (J DAVID GLADSTONE INSTITUTES, published 2004)

B1: synthetic unacetylated Tat (other)
chain: MEPVDPRLEPWKHPGSQPKTACTTCYCKKCCFHCQVCFTTKALGISYGRKKRRQRRRPPQGSQTHQVSLSKQ
notes: range 1-72; also called nonacetylated Tat
B2: synthetic Tat protein containing a single acetylated lysine at position 50 (AcTat) (other)
chain: MEPVDPRLEPWKHPGSQPKTACTTCYCKKCCFHCQVCFTTKALGISYGRKKRRQRRRPPQGSQTHQVSLSKQ
modifications: acetylated lysine at position 50 (K50)
notes: range 1-72; also called acetylated Tat; K50-acetylated Tat

Molecular target: T1, GST alone (UniProt P08515 1-218 = GST)
T1 construct: Control in the GST pulldown
Test: GST pulldown, immunoblot with anti-Tat mAb

T1 sequence (P08515 whole entry): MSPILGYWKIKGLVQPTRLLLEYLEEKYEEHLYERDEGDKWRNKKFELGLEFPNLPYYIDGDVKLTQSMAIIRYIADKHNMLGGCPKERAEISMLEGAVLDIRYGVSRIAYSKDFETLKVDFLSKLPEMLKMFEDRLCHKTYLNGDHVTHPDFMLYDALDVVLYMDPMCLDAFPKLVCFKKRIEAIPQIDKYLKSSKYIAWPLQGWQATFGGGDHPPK

Row | Binder | binding result
1 | B1 | no binding
2 | B2 | no binding
